Patent publication EP2254592B1

Molecular target: purified folded MHC-complex (Example 57)
Test: sandwich ELISA, W6/32 coated, HRP anti-β2m detection, OD450

W6/32 mouse-anti-HLA-ABC antibody (Dako M0736)
OD450 ratio to the negative control β2m: > 6 fold
